B1: H2.1 scFv antibody (scFv)
scFv: EVQLVESGGSLVKPGGSLRLSCAASGFTFSNYSMNWVRQAPGKGLEWISSISGSSRYIYYADFVKGRFTISRDNATNSLYLQMNSLRAEDTAVYYCVRGGVDSSGDNCFDLWGRGTLVTVSSGGGGSGGGGSGGGGSQSVLTQPASVSGSPGQSITISCAGTSSDVGGYNYVSWYQQHPGKAPKLMIYEDSKRPSGVSNRFSGSKSGNTASLTISGLQAEDEADYYCTSYGSGATLVFGGGTKLAV
notes: Soluble scFv with c-myc and 6His tags
B2: I8.1 scFv antibody (scFv)
scFv: EVQLVESGGSLVKPGGSLRLSCAASGFTFSNYSMNWVRQAPGKGLEWISSISGSSRYIYYADFVKGRFTISRDNATNSLYLQMNSLRAEDTAVYYCVRNSFYASWSKDYSMEIWGRGTLVTVSSGGGGSGGGGSGGGGSQSVLTQPASVSGSPGQSITISCAGTSSDVGGYNYVSWYQQHPGKAPKLMIYEDSKRPSGVSNRFSGSKSGNTASLTISGLQAEDEADYYCQSWASRINIFGGGTKLAV
notes: as for B1
B3: C3.3 scFv antibody (scFv)
scFv: EVQLVESGGSLVKPGGSLRLSCAASGFTFSNYSMNWVRQAPGKGLEWISSISGSSRYIYYADFVKGRFTISRDNATNSLYLQMNSLRAEDTAVYYCVRGIDGGGGWNYFDHWGRGTLVTVSSGGGGSGGGGSGGGGSQSVLTQPASVSGSPGQSITISCAGTSSDVGGYNYVSWYQQHPGKAPKLMIYEDSKRPSGVSNRFSGSKSGNTASLTISGLQAEDEADYYCRQPSNSPPLNFGGGTKLAV
notes: as for B1
B4: K3.1 scFv antibody (scFv)
scFv: EVQLVESGGSLVKPGGSLRLSCAASGFTFSNYSMNWVRQAPGKGLEWISSISGSSRYIYYADFVKGRFTISRDNATNSLYLQMNSLRAEDTAVYYCVRGEGLYSGSYNLHYWGRGTLVTVSSGGGGSGGGGSGGGGSQSVLTQPASVSGSPGQSITISCAGTSSDVGGYNYVSWYQQHPGKAPKLMIYEDSKRPSGVSNRFSGSKSGNTASLTISGLQAEDEADYFCGTPNTHALWVFGGGTKLAV
notes: Human scFv from a semi-synthetic library (13R4 framework), made soluble in E. coli HB2151 and purified on nickel; It carried c-myc and 6His tags in the assays

Columns and labels:
[1] = biological target: T1, biotinylated BSA (bovine, UniProt P02769 25-607, biotinylated); test: direct TR-FRET, scFv coated
T1 construct: Control protein in the direct TR-FRET assay, at 50 ug/mL; also called biotinylated control protein; bovine serum albumin
Experimental: FIG. 4. Direct TR-FRET binding assays between scFvs and atheromatous tissue extracts. Direct TR-FRET principle is schematized at the top. The donor fluorophore europium cryptate (Eu)K conjugated to anti-c-myc mAb was able to recognize c-myc tag expressed by scFvs. The acceptor fluorophore XL665 conjugated to streptavidin bound biotinylated protein extract. When scFvs and target proteins bound, a FRET signal was recorded. […] Specific TR-FRET signal was measured as a percentage DeltaF (percent DeltaF). The time course of the detection of the complex formation was performed after 6 hours (▪), 16 hours ( ), 24 hours ( ) and 40 hours (□) of incubation at 4° C. Ten microliter of scFv were coated on the plate at concentrations between 3 and 10 μg/mL according to the clone. The signals were measured in the presence of 4 nmol/L of mAb-(Eu)K, 4 nmol/L of streptavidin-XL665, and 30 μg/mL of biotinylated atheromatous protein extract or 50 μg/mL of biotinylated BSA (data not shown). Histobar values represent the average of at least three independent experiments±SD performed from the same purified scFv production.
Binding assays between scFvs and atheromatous protein extracts were assessed by direct TR-FRET. Black Fluotrac 600 microplate (Greiner) was coated with 10 μL of scFv (final concentration comprised between 3 and 10 μg/mL according to the clone) in 0.1 mol/L NaHCO₃, pH 8.6 for 16 hours at 4° C. Subsequently, plates were blocked for 3 hours at 4° C. using 1% BSA (w/v) in PBS solution. Following washing in PBS, 30 μg/mL of biotinylated atheromatous protein extract in 1% BSA/PBS was incubated for 16 hours at 4° C. After washing in PBS, 50 μL of reaction buffer (100 mmol/L Phosphate buffer, pH 7; 400 mmol/L KF buffer; 0.1% BSA), 4 nmol/L of anti c-myc-(Eu)K (Cisbio Bioassays, Codolet, France) and 4 nmol/L of streptavidin-XL665 (Cisbio Bioassays) were incubated in a final volume of 100 μL. FRET signal emission was measured and monitored with an Infinite® F500 reader (Tecan, Lyon, France) on a 40-hour time course. The percent DeltaF values reported the intensity of the direct binding between scFvs and protein extract.

[2] = biological target: human recombinant carbonic anhydrase II (human, UniProt P00918 1-260); test: ELISA, CA-II coated at 10 µg/mL, scFv at 10 µg/mL
Experimental: Ninety-six well ELISA microtiter plates (Greiner) were coated overnight, at 4° C., with 100 µL of human recombinant carbonic anhydrase II (Sigma-Aldrich, St louis, USA) at a final concentration of 10 μg/mL, or bovine serum albumin at 50 μg/mL in carbonate buffer (NaHCO3/Na2CO3, 50 mmol/L, pH 9.6). All further reactions were carried out at room temperature. Following three washing steps with PBS-Tween 20 (0.5% Tween 20), 100 μL of purified K3.1 scFv at 10 μg/mL were added to each well. After a 2-h incubation and five washing steps, bound scFv was labeled with a mix of HRP-conjugated anti c-myc (diluted 1/1000, Miltenyi Biotech) and anti 6His (diluted 1/500, Roche Diagnostics) mAbs. After 1-h incubation and washing steps, color was developed with 100 μL of 3,3′,5,5′-Tetramethylbenzidine (TMB) liquid substrate system for ELISA (Sigma) and the absorbance was read at 450 nm with an Infinite® F500 reader (Tecan, Lyon, France).

[3] = biological target: T2, rabbit cytosolic carbonic anhydrase isoenzyme II (CA-II) (rabbit, UniProt P00919 2-260); test: immunoprecipitation from rabbit atherosclerotic lysate on nickel beads, SDS-PAGE, LC-MS/MS
T2 construct: Pulled down from the lysate of rabbit atherosclerotic aorta; also called CA-II protein; protein with an apparent molecular mass of ~29 kDa
Experimental: Nickel-coated superparamagnetic beads (Ademtech, Pessac, France) were pre-washed three times with 500 μL of Binding Buffer (BB) (20 mmol/L Tris, pH 7; 500 mmol/L NaCl) and then incubated for 1 hour with 1 mg of rabbit atheromatous proteins solubilized in low stringent lysis buffer in order to get rid of nonspecific binding proteins. The supernatant free of nonspecific binding proteins was recovered and incubated with 10 μg of purified K3.1 scFv or of an irrelevant scFv for 16 hours at 4° C. under rotation. The next day, 20 μL of clean pre-washed superparamagnetic beads were added and incubated for a further 1 hour at 20° C. After three washings with 500 μL of BB, the immunoprecipitated complexes were eluted with 2×30 μL of elution buffer (20 mmol/L Tris-HCl, pH 7.5; 500 mmol/L NaCl; 100 mmol/L imidazole). The protein complexes were then separated using 10% SDS-PAGE under reducing conditions. The band was excised and submitted to trypsin digestion, followed by liquid chromatrography-tandem mass spectrometry analysis (LC-MS/MS).
To identify the molecule recognized by purified K3.1 scFv, immunoprecipitation experiments using nickel superparamagnetic beads were performed to retain 6H is-tagged scFvs complexed to antigens contained in the rabbit atherosclerotic protein lysate. […]

T1 sequence (P02769 25-607 limits assumed): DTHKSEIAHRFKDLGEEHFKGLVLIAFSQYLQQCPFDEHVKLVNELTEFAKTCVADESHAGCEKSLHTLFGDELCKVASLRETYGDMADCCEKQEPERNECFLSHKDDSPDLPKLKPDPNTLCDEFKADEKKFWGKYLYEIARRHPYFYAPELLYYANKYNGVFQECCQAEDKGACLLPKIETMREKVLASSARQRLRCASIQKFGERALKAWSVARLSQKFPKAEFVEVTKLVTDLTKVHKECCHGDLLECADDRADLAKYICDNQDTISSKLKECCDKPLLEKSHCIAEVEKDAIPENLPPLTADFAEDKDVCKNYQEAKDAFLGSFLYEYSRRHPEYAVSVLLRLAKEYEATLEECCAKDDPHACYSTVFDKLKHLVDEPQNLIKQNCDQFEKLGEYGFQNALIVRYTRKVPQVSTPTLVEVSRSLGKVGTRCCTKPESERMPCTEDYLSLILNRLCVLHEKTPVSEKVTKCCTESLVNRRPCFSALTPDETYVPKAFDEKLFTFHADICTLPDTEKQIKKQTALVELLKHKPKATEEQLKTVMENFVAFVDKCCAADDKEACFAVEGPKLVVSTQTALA

Row | Binder | binding result [1] | binding result [2] | binding result [3]
1 | B1 | no binding (tested: 50 µg/mL of biotinylated BSA) |  | 
2 | B2 | no binding (tested: 50 µg/mL of biotinylated BSA) |  | 
3 | B3 | no binding (tested: 50 µg/mL of biotinylated BSA) |  | 
4 | B4 | no binding (tested: 50 µg/mL of biotinylated BSA) | binds | binds

Source: patent US20140328753A1 (UNIVERSITE BORDEAUX SEGALEN, published 2014)
